Patent US20210388087A1 (Chugai, published 2021)
Substitutions are numbered along the chain they refer to. Numbers in names are those of the source. Blank lines part the entries; values can stand above or below the binder they belong to.

Biological target: T1, CD3 epsilon homodimer protein (UniProt P07766 23-126)
T1 construct: immobilized on Sensor chip CM4 by amine coupling; also called CD3 (CD3 epsilon)
Experiment: SPR (Biacore T200), CD3 epsilon homodimer on CM4 chip, one-arm antibody as analyte, 25 C;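 further: homodimer attached to the sensor surface via amine coupling, HBS-EP+ used as running buffer during binding runs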

T1 sequence (P07766 23-126): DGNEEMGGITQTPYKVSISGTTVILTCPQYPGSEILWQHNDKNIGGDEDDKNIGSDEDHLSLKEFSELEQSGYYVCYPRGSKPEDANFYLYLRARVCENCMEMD

ratio of amounts bound (altered form / CE115HA000): 0.16
B2: CE115HA000 Y97A one-arm antibody (antibody, human IgG1, kappa, L234A L235A, N297A, name in Kabat numbering)
heavy: QVQLVESGGGVVQPGRSLRLSCAASGFTFSNAWMHWVRQAPGKGLEWVAQIKAKSNNYATYYAESVKGRFTISRDDSKNSLYLQMNSLKTEDTAVYYCRYVHAGAYYGVDAWGQGTTVTVSSASTKGPSVFPLAPSSKSTSGGTAALGCLVKDYFPEPVTVSWNSGALTSGVHTFPAVLQSSGLYSLSSVVTVPSSSLGTQTYICNVNHKPSNTKVDKKVEPKSCDKTHTCPPCPAPEAAGGPSVFLFPPKPKDTLMISRTPEVTCVVVDVSHEDPEVKFNWYVDGVEVHNAKTKPREEQYASTYRVVSVLTVLHQDWLNGKEYKCKVSNKALPAPIEKTISKAKGQPREPQVYTLPPSRCELTKNQVSLSCAVKGFYPSDIAVEWESNGQPENNYKTTPPVLDSDGSFFLVSKLTVDKSRWQQGNVFSCSVMHEALHNHYTQKSLSLSPDYKDDDDK
chain: EPKSSDKTHTCPPCPAPELLGGPSVFLFPPKPKDTLMISRTPEVTCVVVDVSHEDPEVKFNWYVDGVEVHNAKTKPREEQYNSTYRVVSVLTVLHQDWLNGKEYKCKVSNKALPAPIEKTISKAKGQPREPQVCTLPPSRDELTKNQVSLWCLVKGFYPSDIAVEWESNGQPENNYKTTPPVLDSDGSFFLYSKLTVDKSRWQQGNVFSCSVMHEALHNRYTQKSLSLSP
light: DIVMTQSPLSLPVTPGEPASISCRSSQSLVHSNRNTYLHWYQQKPGQAPRLLIYKVSNRFSGVPDRFSGSGSGTDFTLKISRVEAEDVGVYYCGQGTQVPYTFGQGTKLEIKRTVAAPSVFIFPPSDEQLKSGTASVVCLLNNFYPREAKVQWKVDNALQSGNSQESVTEQDSKDSTYSLSSTLTLSKADYEKHKVYACEVTHQGLSSPVTKSFNRGEC

ratio of amounts bound (altered form / CE115HA000): 0.3
B3: CE115HA000 Y58K one-arm antibody (antibody, human IgG1, kappa, L234A L235A, N297A, name in Kabat numbering)
heavy: B2 heavy with Y61K, A103Y
chain: B2 chain
light: B2 light

ratio of amounts bound (altered form / CE115HA000): 0.18
B5: CE115HA000 Y58S one-arm antibody (antibody, human IgG1, kappa, L234A L235A, N297A, name in Kabat numbering)
heavy: B2 heavy with Y61S, A103Y
chain: B2 chain
light: B2 light

ratio of amounts bound (altered form / CE115HA000): 0.33
B6: CE115HA000 Y58N one-arm antibody (antibody, human IgG1, kappa, L234A L235A, N297A, name in Kabat numbering)
heavy: B2 heavy with Y61N, A103Y
chain: B2 chain
light: B2 light

ratio of amounts bound (altered form / CE115HA000): 0.85
B7: CE115HA000 Y59A one-arm antibody (antibody, human IgG1, kappa, L234A L235A, N297A, name in Kabat numbering)
heavy: B2 heavy with Y62A, A103Y
chain: B2 chain
light: B2 light

ratio of amounts bound (altered form / CE115HA000): 0.66
B9: CE115HA000 Y59E one-arm antibody (antibody, human IgG1, kappa, L234A L235A, N297A, name in Kabat numbering)
heavy: B2 heavy with Y62E, A103Y
chain: B2 chain
light: B2 light

ratio of amounts bound (altered form / CE115HA000): 0.11
B12: CE115HA000 Y58D one-arm antibody (antibody, human IgG1, kappa, L234A L235A, N297A, name in Kabat numbering)
heavy: B2 heavy with Y61D, A103Y
chain: B2 chain
light: B2 light

ratio of amounts bound (altered form / CE115HA000): 0.7
B14: CE115HA000 Y59D one-arm antibody (antibody, human IgG1, kappa, L234A L235A, N297A, name in Kabat numbering)
heavy: B2 heavy with Y62D, A103Y
chain: B2 chain
light: B2 light

ratio of amounts bound (altered form / CE115HA000): 0.94
B15: CE115HA000 Y59S one-arm antibody (antibody, human IgG1, kappa, L234A L235A, N297A, name in Kabat numbering)
heavy: B2 heavy with Y62S, A103Y
chain: B2 chain
light: B2 light

ratio of amounts bound (altered form / CE115HA000): 0.19
B19: CE115HA000 Y58Q one-arm antibody (antibody, human IgG1, kappa, L234A L235A, N297A, name in Kabat numbering)
heavy: B2 heavy with Y61Q, A103Y
chain: B2 chain
light: B2 light

ratio of amounts bound (altered form / CE115HA000): 0.27
B22: CE115HA000 Y58L one-arm antibody (antibody, human IgG1, kappa, L234A L235A, N297A, name in Kabat numbering)
heavy: B2 heavy with Y61L, A103Y
chain: B2 chain
light: B2 light

Second part, the binder before the results:

B1: CE115HA000 V100cE one-arm antibody (antibody, human IgG1, kappa, L234A L235A, N297A, name in Kabat numbering)
heavy: B2 heavy with A103Y, V109E
chain: B2 chain
light: B2 light
ratio of amounts bound (altered form / CE115HA000): 0.46

B4: CE115HA000 W33A one-arm antibody (antibody, human IgG1, kappa, L234A L235A, N297A, name in Kabat numbering)
heavy: B2 heavy with W33A, A103Y
chain: B2 chain
light: B2 light
ratio of amounts bound (altered form / CE115HA000): 0.1

B8: CE115HA000 W33H one-arm antibody (antibody, human IgG1, kappa, L234A L235A, N297A, name in Kabat numbering)
heavy: B2 heavy with W33H, A103Y
chain: B2 chain
light: B2 light
ratio of amounts bound (altered form / CE115HA000): 0.13

B10: CE115HA000 Y55D one-arm antibody (antibody, human IgG1, kappa, L234A L235A, N297A, name in Kabat numbering)
heavy: B2 heavy with Y58D, A103Y
chain: B2 chain
light: B2 light
ratio of amounts bound (altered form / CE115HA000): 0.45

B11: CE115HA000 W33Y one-arm antibody (antibody, human IgG1, kappa, L234A L235A, N297A, name in Kabat numbering)
heavy: B2 heavy with W33Y, A103Y
chain: B2 chain
light: B2 light
ratio of amounts bound (altered form / CE115HA000): 0.66

B13: CE115HA000 Y55S one-arm antibody (antibody, human IgG1, kappa, L234A L235A, N297A, name in Kabat numbering)
heavy: B2 heavy with Y58S, A103Y
chain: B2 chain
light: B2 light
ratio of amounts bound (altered form / CE115HA000): 0.26

B16: CE115HA000 W33L one-arm antibody (antibody, human IgG1, kappa, L234A L235A, N297A, name in Kabat numbering)
heavy: B2 heavy with W33L, A103Y
chain: B2 chain
light: B2 light
ratio of amounts bound (altered form / CE115HA000): 0.1

B17: CE115HA000 W33D one-arm antibody (antibody, human IgG1, kappa, L234A L235A, N297A, name in Kabat numbering)
heavy: B2 heavy with W33D, A103Y
chain: B2 chain
light: B2 light
ratio of amounts bound (altered form / CE115HA000): 0.1

B18: CE115HA000 W33F one-arm antibody (antibody, human IgG1, kappa, L234A L235A, N297A, name in Kabat numbering)
heavy: B2 heavy with W33F, A103Y
chain: B2 chain
light: B2 light
ratio of amounts bound (altered form / CE115HA000): 0.65

B20: CE115HA000 V100cP one-arm antibody (antibody, human IgG1, kappa, L234A L235A, N297A, name in Kabat numbering)
heavy: B2 heavy with A103Y, V109P
chain: B2 chain
light: B2 light
ratio of amounts bound (altered form / CE115HA000): 0.2

B21: CE115HA000 Y58A one-arm antibody (antibody, human IgG1, kappa, L234A L235A, N297A, name in Kabat numbering)
heavy: B2 heavy with Y61A, A103Y
chain: B2 chain
light: B2 light
ratio of amounts bound (altered form / CE115HA000): 0.22

B23: CE115HA000 Y55G one-arm antibody (antibody, human IgG1, kappa, L234A L235A, N297A, name in Kabat numbering)
heavy: B2 heavy with Y58G, A103Y
chain: B2 chain
light: B2 light
ratio of amounts bound (altered form / CE115HA000): 0.55
